Results published in patent US20050095655A1, “Solution-based methods for detecting MHC-binding peptides” (priority 2003, published 2005).

Experiments:
[1] = target: monomer HLA-A*0201/HIVpol (Homo sapiens, UniProt P04439, D140Y/D185E/D98H/E176V/E277Q/G131W/G231S/I119V/I121R/I166T/I218V/L300P/L318F/N151K/N90K/P208A/P217A/Q86G/Q94H/R138H/R169H/T345S); assay: Exchange of fluorescent tracer peptide on template monomer, no competitor
[2] = target: monomer HLA-A*0201/CMVpp65 (Homo sapiens, UniProt P04439, D140Y/D185E/D98H/E176V/E277Q/G131W/G231S/I119V/I121R/I166T/I218V/L300P/L318F/N151K/N90K/P208A/P217A/Q86G/Q94H/R138H/R169H/T345S); assay: as above; conditions: after 120 h

Substance: FLPSDC(FITC)FPSV [HBVc-FITC]
- maximum percentage of exchange [1]: 40%
- % exchange [2]: about 80%
